This is an account of results in publication PMC3441668.

For the test, the target named is Bcl-xL (UniProt Q07817). Description: anti-myc co-IP, Bcl-xL immunoblot. As to conditions: reference: myc-Rad9 wild type; sites S328. Background: In western blotting, separated proteins are transferred to a membrane and probed.

Regarding “Rad9 (from UniProt Q99638) myc-Rad9 S328A”, the “binding against the reference” value is recorded as “weaker”.
